Where a chain is given by its changes, count along the chain named. In names and notes the source's numbering stands.
T1: FRETS-VWF73 fluorogenic substrate, P04275
T1 chain: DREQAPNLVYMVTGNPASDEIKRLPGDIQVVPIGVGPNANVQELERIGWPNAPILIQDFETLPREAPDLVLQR

B1: Full-length ADAMTS13 variant NGLY6 (636RLPRL640 to 636RNASL640) (protein)
chain: AAGGILHLELLVAVGPDVFQAHQEDTERYVLTNLNIGAELLRDPSLGAQFRVHLVKMVILTEPEGAPNITANLTSSLLSVCGWSQTINPEDDTDPGHADLVLYITRFDLELPDGNRQVRGVTQLGGACSPTWSCLITEDTGFDLGVTIAHEIGHSFGLEHDGAPGSGCGPSGHVMASDGAAPRAGLAWSPCSRRQLLSLLSAGRARCVWDPPRPQPGSAGHPPDAQPGLYYSANEQCRVAFGPKAVACTFAREHLDMCQALSCHTDPLDQSSCSRLLVPLLDGTECGVEKWCSKGRCRSLVELTPIAAVHGRWSSWGPRSPCSRSCGGGVVTRRRQCNNPRPAFGGRACVGADLQAEMCNTQACEKTQLEFMSQQCARTDGQPLRSSPGGASFYHWGAAVPHSQGDALCRHMCRAIGESFIMKRGDSFLDGTRCMPSGPREDGTLSLCVSGSCRTFGCDGRMDSQQVWDRCQVCGGDNSTCSPRKGSFTAGRAREYVTFLTVTPNLTSVYIANHRPLFTHLAVRIGGRYVVAGKMSISPNTTYPSLLEDGRVEYRVALTEDRNASLEEIRIWGPLQEDADIQVYRRYGEEYGNLTRPDITFTYFQPKPRQAWVWAAVRGPCSVSCGAGLRWVNYSCLDQARKELVETVQCQGSQQPPAWPEACVLEPCPPYWAVGDFGPCSASCGGGLRERPVRCVEAQGSLLKTLPPARCRAGAQQPAVALETCNPQPCPARWEVSEPSSCTSAGGAGLALENETCVPGADGLEAPVTEGPGSVDEKLPAPEPCVGMSCPPGWGHLDATSAGEKAPSPWGSIRTGAQAAHVWTPAAGSCSVSCGRGLMELRFLCMDSALRVPVQEELCGLASKPGSRREVCQAVPCPARWQYKLAACSVSCGRGVVRRILYCARAHGEDDGEEILLDTQCQGLPRPEPQEACSLEPCPPRWKVMSLGPCSASCGLGTARRSVACVQLDQGQDVEVDEAACAALVRPEASVPCLIADCTYRWHVGTWMECSVSCGDGIQRRRDTCLGPQAQAPVPADFCQHLPKPVTVRGCWAGPCVGQGTPSLVPHEEAAAPGRTTATPAGASLEWSQARGLLFSPAPQPRRLLPGPQENSVQSSACGRQHLEPTGTIDMRGPGQADCAVAIGRPLGEVVTLRVLESSLNCSAGDMLLLWGRLTWRKMCRKLLDMTFSSKTNTLVVRQRCGRPGGGVLLRYGSQLAPETFYRECDMQLFGPWGEIVSPSLSPATSNAGGCRLFINVAPHARIAIHALATNMGAGTEGANASYILIRDTHSLRTTAFHGQQVLYWESESSQAEMEFSEGFLKAQASLRGQYWTLQSWVPEMQDPQSWKGKEGTHHHHHH
B2: Full-length ADAMTS13 variant NGLY5 (635DRLPR639 to 635DNLSR639) (protein)
chain: B1 chain with R562N, N563L, A564S, S565R
B3: Full-length ADAMTS13 variant NGLY1 (567AREYV571 to 567ANETV571) (protein)
chain: B1 chain with R494N, Y496T, N563L, A564P, S565R
B4: Full-length ADAMTS13 variant NGLY2 (590PLFTH594 to 590PNFTH594) (protein)
chain: B1 chain with L517N, N563L, A564P, S565R
B5: Full-length ADAMTS13 variant NGLY3 (607GKMSI611 to 607GNMSI611; K608N) (protein)
chain: B1 chain with K534N, N563L, A564P, S565R
B6: Full-length ADAMTS13 variant NGLY4 (608KMSIS612 to 608KNSTS612) (protein)
chain: B1 chain with M535N, I537T, N563L, A564P, S565R
B7: Full-length wild-type ADAMTS13 (1427 amino acids) (protein)
chain: B1 chain with N563L, A564P, S565R
B8: ADAMTS13 variant NGLY3 + R568A/Y665A + L591A/R636A/L637A/L668A (protein)
chain: AAGGILHLELLVAVGPDVFQAHQEDTERYVLTNLNIGAELLRDPSLGAQFRVHLVKMVILTEPEGAPNITANLTSSLLSVCGWSQTINPEDDTDPGHADLVLYITRFDLELPDGNRQVRGVTQLGGACSPTWSCLITEDTGFDLGVTIAHEIGHSFGLEHDGAPGSGCGPSGHVMASDGAAPRAGLAWSPCSRRQLLSLLSAGRARCVWDPPRPQPGSAGHPPDAQPGLYYSANEQCRVAFGPKAVACTFAREHLDMCQALSCHTDPLDQSSCSRLLVPLLDGTECGVEKWCSKGRCRSLVELTPIAAVHGRWSSWGPRSPCSRSCGGGVVTRRRQCNNPRPAFGGRACVGADLQAEMCNTQACEKTQLEFMSQQCARTDGQPLRSSPGGASFYHWGAAVPHSQGDALCRHMCRAIGESFIMKRGDSFLDGTRCMPSGPREDGTLSLCVSGSCRTFGCDGRMDSQQVWDRCQVCGGDNSTCSPRKGSFTAGRAAEYVTFLTVTPNLTSVYIANHRPAFTHLAVRIGGRYVVAGNMSISPNTTYPSLLEDGRVEYRVALTEDAAPRLEEIRIWGPLQEDADIQVYRRYGEEAGNATRPDITFTYFQPKPRQAWVWAAVRGPCSVSCGAGLRWVNYSCLDQARKELVETVQCQGSQQPPAWPEACVLEPCPPYWAVGDFGPCSASCGGGLRERPVRCVEAQGSLLKTLPPARCRAGAQQPAVALETCNPQPCPARWEVSEPSSCTSAGGAGLALENETCVPGADGLEAPVTEGPGSVDEKLPAPEPCVGMSCPPGWGHLDATSAGEKAPSPWGSIRTGAQAAHVWTPAAGSCSVSCGRGLMELRFLCMDSALRVPVQEELCGLASKPGSRREVCQAVPCPARWQYKLAACSVSCGRGVVRRILYCARAHGEDDGEEILLDTQCQGLPRPEPQEACSLEPCPPRWKVMSLGPCSASCGLGTARRSVACVQLDQGQDVEVDEAACAALVRPEASVPCLIADCTYRWHVGTWMECSVSCGDGIQRRRDTCLGPQAQAPVPADFCQHLPKPVTVRGCWAGPCVGQGTPSLVPHEEAAAPGRTTATPAGASLEWSQARGLLFSPAPQPRRLLPGPQENSVQSSACGRQHLEPTGTIDMRGPGQADCAVAIGRPLGEVVTLRVLESSLNCSAGDMLLLWGRLTWRKMCRKLLDMTFSSKTNTLVVRQRCGRPGGGVLLRYGSQLAPETFYRECDMQLFGPWGEIVSPSLSPATSNAGGCRLFINVAPHARIAIHALATNMGAGTEGANASYILIRDTHSLRTTAFHGQQVLYWESESSQAEMEFSEGFLKAQASLRGQYWTLQSWVPEMQDPQSWKGKEGT

How the values were obtained:
[1] = molecular target: T1, FRETS-VWF73 fluorogenic substrate, …
[2] = molecular target: Von Willebrand Factor (VWF) multimers, P04275

Protein | FRETS-VWF73 activity relative to wild-type ADAMTS13 [1] | VWF multimer assay (urea-denatured recombinant VWF) [2] | Activity level (% relative to wild type ADAMTS13) VWFFRETS73 (% relative to wild type ADAMTS13) [1] | Ability to process VWF multimers under denaturing conditions [2] | vortex assay: processing of VWF multimers under shear stress [2] | vortex assay: processing of VWF multimers under turbulent flow [2]
B1 | NGLY6 showed a reduced activity when compared to wild-type ADAMTS13 | – | – | – | – | –
B2 | The activity of NGLY5 was slightly reduced when compared to wild type ADAMTS13 | a reduced VWF processing activity was observed for NGLY2 and NGLY5 | – | – | – | –
B3 | The ability of NGLY1, 2, 3 and 4 was similar or higher when compared to wild-type ADAMTS13 | – | – | – | – | –
B4 | The ability of NGLY1, 2, 3 and 4 was similar or higher when compared to wild-type ADAMTS13 | a reduced VWF processing activity was observed for NGLY2 and NGLY5 | – | – | – | –
B5 | The ability of NGLY1, 2, 3 and 4 was similar or higher when compared to wild-type ADAMTS13 | The VWF processing activity of NGLY3 and NGLY4 was similar to that of the wild-type ADAMTS13 | 125 | ++++++ | Under these conditions NGLY3 was fully active | –
B6 | The ability of NGLY1, 2, 3 and 4 was similar or higher when compared to wild-type ADAMTS13 | The VWF processing activity of NGLY3 and NGLY4 was similar to that of the wild-type ADAMTS13 | – | – | – | –
B7 | – | – | 100 | ++++++ | – | resulted in loss of the high molecular weight multimers from the sample
B8 | – | – | 40 | – | – | –

— patent publication US12698494
